# Source: PMC5739345, “Identification of iridoid synthases from Nepeta species: Iridoid cyclization does not determine nepetalactone stereochemistry” (Phytochemistry, 2018)
# B1: NmISY2 (Nepeta racemosa) (protein)
# chain: MSLSWWRAGAAKKRMDDDESLLVKQQQQQCVALIVGVTGLVGNSLAEMLPLPDTPGGPWKVYGVARRARPSWNEDQPMTYISCDVSNTGEVEAKLSPLSDVTHIFYATWTSRSTEEENCEANGKMLKNVLDAMIPNCPNLKHICLQTGRFHYVASVVDWKINGSHDTPLTEDLPRLKTNNFYYTQEDILLEEVKRKEGLTWSVHRPGTIFGFSPYSMMNLVGTLCVYAAICKQEGAVLRFPGCKGAWDGHSDCADADLIAEQQIWAALDPHAKNQAFNVSNGDLFKWKHLWKVLADQFGVECGDYEEGQQLRLQDVMKDKGPVWDKIVAENGLSNTKLEDVGKWWFSDTILWNECRLDSMNKSKEHGFLGFRNSKNCFLYWIHKVKAYNLVPSTYT
# notes: N-terminal His-tag (pOPINF), E. coli soluBL21 (DE3), Ni-NTA and gel filtration; not fully homogeneous; dimer fraction; Phe at Lys146, Ala at Gly150 positions (natural)
# Experiments:
# purified protein [1] = substrate: C/C(C=O)=C\CC/C(C)=C/C=O; experiment: purified protein; assay type: biochemical, Nepeta racemosa; conditions: 75 μM NADPH, 200 mM MOPS pH 7.0, 100 mM NaCl, 1-1.4% THF, 25 °C, 5 nM enzyme
# purified protein [2] = substrate: NC(=O)C1=CN([C@@H]2O[C@H](COP(=O)(O)OP(=O)(O)OC[C@H]3O[C@@H](n4cnc5c(N)ncnc54)[C@H](OP(=O)(O)O)[C@@H]3O)[C@@H](O)[C@H]2O)C=CC1; experiment: purified protein; assay type: biochemical, Nepeta racemosa; conditions: 50 μM 8-oxogeranial, 200 mM MOPS pH 7.0, 100 mM NaCl, 1-1.4% THF, 25 °C, 5 nM enzyme, varied: cofactor
protein,measurement,setting,value
B1,Km,purified protein [1],7.3 ± 0.7 µM
same,kcat,purified protein [1],0.60 ± 0.02 s⁻¹
same,Km,purified protein [2],26.2 ± 5.1 µM
same,kcat,purified protein [2],0.84 ± 0.06 s⁻¹
